Test results taken from the supplement of paper PMC10567573.

B1: MATN2 (parent)
chain: FIVDILQFLDIGPDVTRVGLLQYG
B2: CROP (parent)
chain: VFGRGDNISDVSKFLEDDKWMEE
B3: SNURF (parent)
chain: QVPVVDFQAELRQAFLAETPRGG

Variants of: B1
Experiment: protein stability index of a GFP-peptide fusion (GPS, HEK-293T) (PSI 1-6); higher = more stable
Details: c terminus: a fixed tail appended
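Also: lentivirally expressed fusions sorted by FACS into six bins by GFP to DsRed ratio, PSI derived from sequencing read proportions per bin multiplied by bin number.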

Protein stability index of substitutions, site by site:
Y23: R 3.61 | L 1.84 | Q 2.29 | T 3.99 | M 2.75
Q22: G 3.55 | M 2.53 | V 3.57 | S 3.08 | N 1.93 | K 2.98 | Y 4.14
G24: K 1.81 | R 2.18 | A 2.27 | L 4.05 | I 3.62 | H 3.37 | E 1.99 | W 3.04 | F 3.31

Variants of: B2
Experiment: as above
Details: c terminus: native

Protein stability index, by site and new letter:
D6: E 2.42 | I 2.48 | Q 2.4 | G 2.08 | H 1.85 | K 2.01 | V 2.96 | R 2.16 | W 4.02 | S 2.15 | L 2.91 | P 2.32
D10: A 1.99 | E 2.1 | T 2.74 | M 2.75 | I 1.99 | P 1.69 | S 2.09 | V 2.63 | H 3.06 | K 1.99 | R 1.55 | N 2.04 | G 2.11
R4: F 2.19 | G 2.16 | W 1.39 | I 1.95 | H 2.19 | V 1.9 | L 1.98 | S 2.33 | N 2.1 | T 2.3 | A 2.43 | D 2.4 | M 2.77 | Y 2.31 | E 2.42 | Q 1.99 | P 1.51 | C 2.66 | K 2.41
V1: D 3.13 | H 2.59 | M 1.84 | I 1.43 | N 2.25 | S 2.11 | R 2.37 | L 2.48 | W 3.69 | K 2.73 | C 1.97 | E 2.97 | P 2.76 | A 2.11 | Q 3 | G 3.63
F2: Y 1.66 | T 3.29 | I 1.8 | A 2.88 | V 2.64 | D 3.87 | C 3.7 | N 2.87 | P 2.66 | G 2.79 | Q 2.99 | K 2.16 | L 1.97 | S 2.83 | W 2.85 | E 4.33 | H 3.4
V11: H 2.43 | Q 2.87 | N 2.33 | P 3.27 | M 2.95 | F 2.15 | C 2.35 | K 2.6 | I 2.39 | L 1.61 | R 2.12 | G 2.11 | E 2.39 | A 2.4
G3: A 2.83 | P 2.84 | Q 2.11 | C 2.48 | S 1.82 | M 1.51 | R 2.1 | W 2.36 | F 1.44 | V 1.51 | K 1.44 | D 2.21 | T 2.07 | H 1.88
S9: G 2.06 | V 2.11 | N 1.78 | I 1.97 | Q 2.41 | H 2.25 | A 2.31 | M 2.47 | T 2.43 | P 3.03 | E 2.44 | F 1.63 | Y 2.3 | D 2.12 | K 1.62 | L 3.1
I8: G 3.51 | C 2.81 | R 2.92 | K 2.23 | E 2.9 | S 2.48 | M 2.05 | F 2 | T 2.62 | D 1.89 | A 2.35 | P 2.03 | Y 1.74 | H 1.93 | N 1.44 | L 2.11 | Q 2.07
G5: F 1.88 | A 2.03 | Y 1.32 | R 1.74 | C 2.27 | L 2.16 | D 2.29 | V 1.61 | T 2.63 | I 2.77 | K 3.07 | N 3.26 | M 1.14 | S 3.13 | W 2.02 | P 2.54 | Q 2.3
N7: S 1.41 | E 1.4 | P 1.35 | R 2.61 | Y 1.97 | C 2.37 | A 1.68 | D 2.89 | H 2.12 | M 1.64 | G 1.77 | V 1.53 | I 2.21 | L 1.42 | Q 1.79 | T 1.89

Variants of: B3
Experiment: as above
Details: c terminus: native

Protein stability index: each site, then its substitutions
Q8: Y 2.98 | T 3.31 | L 3.47 | K 5.19 | V 1.43 | C 3.49
G22: F 2.29 | C 1.99 | T 2.57 | Y 2.51 | N 2.5 | R 2.73 | D 4.09 | H 2.79 | L 2.66 | S 1.94 | E 3.26 | V 3.34 | K 2.04 | I 2.95 | M 1.95
L16: A 2.42 | P 3.02 | Y 3.57 | H 2.13 | F 2.03 | W 1.96
R12: E 2.54 | M 3.51 | P 2.89 | N 2.92 | Q 3.27 | Y 3.86
D6: R 2.21 | C 4.03 | N 3.2 | E 4.69
P3: D 3.02 | Q 4.82 | V 3.01
P20: F 2.27 | I 3.38 | Y 3.23 | C 1.59 | A 3 | W 3.74 | K 2.19
V2: G 2.61 | Q 1.5 | K 3.98
F7: S 3.5 | W 2.9 | T 4.49
T19: A 3.59 | F 2.29 | R 1.63 | C 3.31 | K 3.17
L11: R 3.83 | A 3.6 | F 3.51 | D 2.77 | P 3.34 | I 2.03 | S 2.27 | K 4.47
Q1: S 2.31 | N 2.49 | T 3.88
Q13: Y 2.73 | G 4.32 | M 2.42 | A 2.68 | S 3.53 | C 1.71 | D 2.15
V5: L 3.11 | F 2.39 | A 2.08 | I 4.13 | H 3.52 | D 1.7 | W 3.5 | T 2.34 | S 4.05
E10: A 1.34 | D 2.15 | K 2.48 | Q 2.59 | M 3.19 | F 4 | P 2.93
A9: D 2.47
E18: F 1.67 | S 2.02 | C 3.41 | P 3.59
F15: T 3.19 | R 1.95 | G 3.47 | K 2.48 | E 2.82 | Y 1.94 | W 2.83
A17: K 3.45 | I 3.76 | S 2
V4: F 3.43 | A 3.33 | W 2.09 | T 2.69 | M 3.48 | L 2.5
G23: A 2.38 | W 1.5 | D 3.97 | V 2.52 | H 1.77 | F 2.27 | N 1.92 | I 2.06 | C 1.66 | E 1.85 | S 3.16 | Y 3.06 | L 3.09 | Q 2.42 | T 3.93 | M 1.71 | K 4.37
R21: K 1.78 | L 2.66 | P 3.47 | A 4.22 | N 2.15
A14: F 2.58 | L 3.5 | P 2.12 | H 2.3 | D 2.99 | K 3.05 | E 3.09
